Results reported in article PMC4809669 (Biochemistry, 2016).
Substitutions are numbered along the chain they refer to. Numbers in names are those of the source.

B1: hASRGL1-C202A (enzyme, human, UniProt Q7L266 1-308, looked up)
chain: MNPIVVVHGGGAGPISKDRKERVHQGMVRAATVGYGILREGGSAVDAVEGAVVALEDDPEFNAGCGSVLNTNGEVEMDASIMDGKDLSAGAVSAVQCIANPIKLARLVMEKTPHCFLTDQGAAQFAAAMGVPEIPGEKLVTERNKKRLEKEKHEKGAQKTDCQKNLGTVGAVALDCKGNVAYATSTGGIVNKMVGRVGDSPALGAGGYADNDIGAVSTTGHGESILKVNLARLTLFHIEQGKTVEEAADLSLGYMKSRVKGLGGLIVVSKTGDWVAKWTSTSMPWAAAKDGKLHFGIDPDDTTITDLP
B2: hASRGL1-C202S (enzyme, human, UniProt Q7L266 1-308, looked up)
chain: B1 chain with A202S

Molecular target: the molecule itself
Assay: SEC

Protein | stoichiometry N
B1 | 2
B2 | 2
